According to patent US7067474B1, “Agents for treating human illnesses based on β-catenin, and the production and use thereof” (Max-Delbruck-Centrum fur Molekulare Medizin, priority 1998, dated 2006):
Positions count from the first letter of the chain named.

How the values were obtained:
[1] = target: T1, human β-catenin (Leu218-Leu781) mutant His 470 to alanine, Gal-4 activation domain fusion (human, UniProt P35222 218-781); test: yeast 2-hybrid
T1 sequence: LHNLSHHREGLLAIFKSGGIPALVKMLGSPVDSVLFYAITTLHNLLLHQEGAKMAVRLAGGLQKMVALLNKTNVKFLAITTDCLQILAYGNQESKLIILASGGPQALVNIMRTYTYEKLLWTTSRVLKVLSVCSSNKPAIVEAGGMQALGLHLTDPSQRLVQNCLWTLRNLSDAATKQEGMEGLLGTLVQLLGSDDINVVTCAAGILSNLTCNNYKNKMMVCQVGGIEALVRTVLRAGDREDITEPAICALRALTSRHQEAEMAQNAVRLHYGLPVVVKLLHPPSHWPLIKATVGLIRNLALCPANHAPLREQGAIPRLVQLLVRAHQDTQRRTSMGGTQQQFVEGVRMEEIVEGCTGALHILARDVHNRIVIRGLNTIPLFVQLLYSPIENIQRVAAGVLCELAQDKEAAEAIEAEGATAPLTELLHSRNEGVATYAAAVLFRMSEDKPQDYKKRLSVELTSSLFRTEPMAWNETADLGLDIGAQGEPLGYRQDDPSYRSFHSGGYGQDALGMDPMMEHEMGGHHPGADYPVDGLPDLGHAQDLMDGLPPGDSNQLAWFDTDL
Experimental: (§1) 4. Preparation and testing of mutants of β-catenin modulating the interaction with LEF-1, APC, conductin or E-cadherin The mutagenesis of β-catenin in the armadillo repeats 3–8 was carried out by means of the "mutagenesis kit" of the company Clontech according to the producer's record and the mutants were checked by sequencing (FIG. 5). In all mutants the original amino acid was substituted by alanine. For analyzing the interactions the cDNA of human β-catenin (armadillo repeat 3 up to the C-terminal end of the protein) coding for the amino acids Leu218–Leu7 µl or its mutants was cloned into the fusion vector for the activation domain of Gal-4 (pGAD424, Clontech). The cDNA for the binding domains of the interaction partners was cloned into the Lex-A fusion vector BTM 116. To this end, the cDNA of LEF-1 for the amino acids 1–99, conductin for the amino acids Ala342–ARG465; of human APC for the amino acids His1012–Glu1215 (APC 15 amino acid repeats) and for the amino acids Ser1259Asp 1400 (APC 20 amino acid repeats) and E-cadherin for the amino acids Gin773–Asp884 (cytoplasmatic domain) were amplified with the respective primers PCR. The interaction of the Lex-A hybrids with β-catenin and its mutants was quantified by means of the β-galactosidase reporter activity in the yeast 2-hybrid system (report: "Matchmaker". Clontech) (Tab. 2 and FIG. 6).

[2] = target: T2, human β-catenin (Leu218-Leu781) mutant Lys 292 to alanine, Gal-4 activation domain fusion (human, UniProt P35222 218-781); test: yeast 2-hybrid; - means 60-100% of the wild type interaction
T2 sequence: T1 sequence with K75A, A253H
Experimental: as §1

[3] = target: T3, human β-catenin (armadillo repeat 3 up to the C-terminal end, Leu218-Leu781) fused to the activation domain … (human, UniProt P04386 768-881; P35222 218-781); test: yeast 2-hybrid; wild type is the 100% reference of Table 2
T3 construct: Order of the fusion follows the vector; also called wild type β-catenin
T3 sequence (looked up): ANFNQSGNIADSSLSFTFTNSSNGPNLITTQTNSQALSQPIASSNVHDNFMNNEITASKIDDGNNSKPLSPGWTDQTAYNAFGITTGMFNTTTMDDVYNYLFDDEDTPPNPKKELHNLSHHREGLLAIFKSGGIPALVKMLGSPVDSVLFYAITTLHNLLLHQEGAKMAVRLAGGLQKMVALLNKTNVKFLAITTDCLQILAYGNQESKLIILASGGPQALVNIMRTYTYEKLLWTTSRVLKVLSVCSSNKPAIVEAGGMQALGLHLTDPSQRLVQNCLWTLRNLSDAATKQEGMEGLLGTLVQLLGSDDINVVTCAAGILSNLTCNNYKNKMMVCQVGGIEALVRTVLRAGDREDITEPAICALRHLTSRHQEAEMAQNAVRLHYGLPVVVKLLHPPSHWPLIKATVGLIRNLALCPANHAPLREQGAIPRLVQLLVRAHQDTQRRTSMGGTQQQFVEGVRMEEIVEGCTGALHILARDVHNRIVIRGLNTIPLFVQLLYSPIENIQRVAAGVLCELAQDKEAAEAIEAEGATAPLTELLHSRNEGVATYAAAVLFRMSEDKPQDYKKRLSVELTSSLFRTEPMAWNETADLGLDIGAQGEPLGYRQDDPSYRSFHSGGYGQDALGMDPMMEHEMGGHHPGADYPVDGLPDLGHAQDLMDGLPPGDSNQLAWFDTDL
Experimental: as §1

- binding result [1]: no binding
- binding result [2]: binds
- binding result [3]: binds
B1: LEF-1 amino acids 1-99 fused to Lex-A (vector BTM 116) (other, UniProt P0A7C2 1-202, looked up)
chain: MKALTARQQEVFDLIRDHISQTGMPPTRAEIAQRLGFRSPNAAEEHLKALARKGVIEIVSGASRGIRLLQEEEEGLPLVGRVAAGEPLLAQQHIEGHYQVDPSLFKPNADFLLRVSGMSMKDIGIMDGDLLAVHKTQDVRNGQVVVARIDDEVTVKRLKKQGNKVELLPENSEFKPIVVDLRQQSFTIEGLAVGVIRNGDWLMPQLSGGGGGGDPELCATDEMIPFKDEGDPQKEKIFAEISHPEEEGDLADIKSSLVNESEIIPASNGHEVVRQAPSSQEPYHDKAREHPDEGKHPDGGL
notes: Order of the fusion follows the vector; also called LEF-1/TCF-4
